Data published in the supplement of paper PMC9112550, “Optimization of the antimicrobial peptide Bac7 by deep mutational scanning” (BMC Biology, 2022).

Test system: Escherichia coli TOP10
Assay: shrunken log2 fold change of peptide-encoding DNA abundance (4.5 h post-induction vs induction); higher = less antimicrobial activity (less host growth inhibition)
Settings: time post-induction: 4.5 h; library: site-saturation at positions 5, 18, 19, 20
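Note: peptides expressed intracellularly from a pBAD plasmid library in pooled LB shake-flask culture, induced with 0.3% L-arabinose, DNA abundance read by NGS, three biological replicates, DESeq2 with apeglm shrinkage.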

| Sequence | shrunken log2 fold change |
| --- | --- |
| RRIRERPPRLPRPRPRPLEMPRP | -0.216 |
| RRIRERPPRLPRPRPRPLESPRP | -0.0735 |
| RRIRERPPRLPRPRPRPLEWPRP | -0.0018 |
| RRIRERPPRLPRPRPRPLFDPRP | -0.581 |
| RRIRERPPRLPRPRPRPLFHPRP | -0.367 |
| RRIRERPPRLPRPRPRPLFSPRP | -0.364 |
| RRIRERPPRLPRPRPRPLGHPRP | 0.187 |
| RRIRERPPRLPRPRPRPLHWPRP | 0.0186 |
| RRIRERPPRLPRPRPRPLLEPRP | 0.105 |
| RRIRERPPRLPRPRPRPLNMPRP | -0.528 |
| RRIRERPPRLPRPRPRPLNQPRP | -0.547 |
| RRIRERPPRLPRPRPRPLQPPRP | 0.468 |
| RRIRERPPRLPRPRPRPLQSPRP | -0.306 |
| RRIRERPPRLPRPRPRPLRKPRP | 0.722 |
| RRIRERPPRLPRPRPRPLRWPRP | 0.459 |
| RRIRERPPRLPRPRPRPLSQPRP | -0.406 |
| RRIRERPPRLPRPRPRPLTIPRP | -0.101 |
| RRIRERPPRLPRPRPRPLTMPRP | -0.308 |
| RRIRERPPRLPRPRPRPLTWPRP | 3.04 |
| RRIRERPPRLPRPRPRPLVKPRP | -0.575 |
| RRIRERPPRLPRPRPRPLVLPRP | -0.333 |
| RRIRERPPRLPRPRPRPLWAPRP | 0.274 |
| RRIRERPPRLPRPRPRPLYPPRP | -0.458 |
| RRIRERPPRLPRPRPRPMCVPRP | -0.461 |
| RRIRERPPRLPRPRPRPMCWPRP | 0.451 |

| Sequence | shrunken log2 fold change |
| --- | --- |
| RRIRERPPRLPRPRPRPMHRPRP | -0.157 |
| RRIRERPPRLPRPRPRPMINPRP | -0.0967 |
| RRIRERPPRLPRPRPRPMLTPRP | 0.151 |
| RRIRERPPRLPRPRPRPMMMPRP | -0.182 |
| RRIRERPPRLPRPRPRPMMTPRP | -0.067 |
| RRIRERPPRLPRPRPRPMPPPRP | 0.197 |
| RRIRERPPRLPRPRPRPMRAPRP | 0.763 |
| RRIRERPPRLPRPRPRPMRCPRP | 0.0239 |
| RRIRERPPRLPRPRPRPMVHPRP | -0.281 |
| RRIRERPPRLPRPRPRPMWFPRP | -0.159 |
| RRIRERPPRLPRPRPRPMYRPRP | -0.273 |
| RRIRERPPRLPRPRPRPMYTPRP | -0.469 |
| RRIRERPPRLPRPRPRPNCEPRP | -0.155 |
| RRIRERPPRLPRPRPRPNDEPRP | -0.0119 |
| RRIRERPPRLPRPRPRPNDNPRP | -0.882 |
| RRIRERPPRLPRPRPRPNEKPRP | -0.0183 |
| RRIRERPPRLPRPRPRPNFFPRP | -0.0705 |
| RRIRERPPRLPRPRPRPNGKPRP | -0.0394 |
| RRIRERPPRLPRPRPRPNGYPRP | -0.193 |
| RRIRERPPRLPRPRPRPNICPRP | -0.523 |
| RRIRERPPRLPRPRPRPNIWPRP | -0.0737 |
| RRIRERPPRLPRPRPRPNKSPRP | -0.369 |
| RRIRERPPRLPRPRPRPNLTPRP | -0.171 |
| RRIRERPPRLPRPRPRPNLVPRP | -0.0264 |
| RRIRERPPRLPRPRPRPNMLPRP | -0.753 |

| Sequence | shrunken log2 fold change |
| --- | --- |
| RRIRERPPRLPRPRPRPNMWPRP | -0.647 |
| RRIRERPPRLPRPRPRPNNAPRP | -0.162 |
| RRIRERPPRLPRPRPRPNNTPRP | -0.769 |
| RRIRERPPRLPRPRPRPNPEPRP | -0.0358 |
| RRIRERPPRLPRPRPRPNPIPRP | -0.213 |
| RRIRERPPRLPRPRPRPNRTPRP | -1.51 |
| RRIRERPPRLPRPRPRPNSGPRP | -0.463 |
| RRIRERPPRLPRPRPRPNTWPRP | 0.0226 |
| RRIRERPPRLPRPRPRPNVRPRP | 0.0403 |
| RRIRERPPRLPRPRPRPNWIPRP | -0.324 |
| RRIRERPPRLPRPRPRPPCHPRP | -0.251 |
| RRIRERPPRLPRPRPRPPEVPRP | 0.452 |
| RRIRERPPRLPRPRPRPPFYPRP | -0.367 |
| RRIRERPPRLPRPRPRPPGEPRP | 0.439 |
| RRIRERPPRLPRPRPRPPGSPRP | -0.0206 |
| RRIRERPPRLPRPRPRPPHYPRP | -0.159 |
| RRIRERPPRLPRPRPRPPKNPRP | 0.284 |
| RRIRERPPRLPRPRPRPPLMPRP | 0.0142 |
| RRIRERPPRLPRPRPRPPLTPRP | -0.0766 |
| RRIRERPPRLPRPRPRPPMCPRP | -0.305 |
| RRIRERPPRLPRPRPRPPNGPRP | 0.203 |
| RRIRERPPRLPRPRPRPPPIPRP | 0.267 |
| RRIRERPPRLPRPRPRPPPNPRP | 0.451 |
| RRIRERPPRLPRPRPRPPQDPRP | 0.113 |
| RRIRERPPRLPRPRPRPPQTPRP | 0.223 |
